From the Immune Epitope Database (IEDB) come the findings set out here.

Test [1] concerns the target HLA-A*02:01. The test can be described thus: IEDB peptide-MHC binding, purified MHC/competitive/fluorescence; ≥ and ≤ were set here for values at or beyond the usual limits of such assays. Particulars: source organism: Zaire ebolavirus.
In test [2] the target is HLA-B*08:01. Described as above. Particulars: source organism: Zaire ebolavirus.
Test [3] has as its target HLA-A*02:03. The test can be described thus: IEDB peptide-MHC binding, purified MHC/direct/fluorescence; filed as Kd, often an IC50 or EC50 that approximates it; ≥ and ≤ were set here for values at or beyond the usual limits of such assays. The note with it: source organism: Choclo virus.
For test [4], the target named is HLA-A*02:11. The description is as above. Particulars: source organism: Choclo virus.
Test [5] has as its target HLA-A*02:12. The test is described as above. The note with it: source organism: Choclo virus.
The target in test [6] is HLA-A*02:16. The description is as above. The note with it: source organism: Choclo virus.
The target in test [7] is HLA-A*02:19. Described as above. Particulars: source organism: Choclo virus.
Test [8] deals with HLA-A*03:01. The description is as above.
Test [9] deals with HLA-A*02:01. In words: IEDB peptide-MHC binding, purified MHC/competitive/fluorescence; filed as Kd, often an IC50 or EC50 that approximates it; ≥ and ≤ were set here for values at or beyond the usual limits of such assays.
In test [10] the target is HLA-A*26:01. The description is as above. Particulars: source organism: Araucaria virus.
A further test deals with HLA-A*69:01. The test is described as above.
Test [11] addresses HLA-B*08:01. The description is as above.
The target of test [12] is HLA-B*15:01. The test is described as above. The note with it: source organism: Araucaria virus.
A further test addresses HLA-B*18:01. The test is described as above. The note with it: source organism: Araucaria virus.
The target of a further test is HLA-B*27:03. The test is described as above. Particulars: source organism: Araucaria virus.
The target of the next test is HLA-B*39:01. Described as above. Particulars: source organism: Araucaria virus.
The target of test [13] is HLA-B*46:01. The description is as above. Particulars: source organism: Araucaria virus.
Another test has as its target HLA-B*51:01. The description is as above. The note with it: source organism: Araucaria virus.
In test [14] the target is HLA-B*57:01. Described as above. Particulars: source organism: Araucaria virus.
Test [15] concerns the target HLA-A*01:01. In words: IEDB peptide-MHC binding, purified MHC/competitive/fluorescence; ≥ and ≤ were set here for values at or beyond the usual limits of such assays.
Test [16] concerns the target HLA-A*03:01. The test is described as above.
The target in test [17] is HLA-A*11:01. Described as above.
Test [18] concerns the target HLA-B*15:01. The test is described as above.
For test [19], the target named is HLA-A*02:03. In words: IEDB peptide-MHC binding, purified MHC/competitive/fluorescence; filed as Kd, often an IC50 or EC50 that approximates it; ≥ and ≤ were set here for values at or beyond the usual limits of such assays. Particulars: source organism: Desulfatibacillum alkenivorans AK-01.
The next test addresses HLA-A*02:06. The description is as above.
Test [20] concerns the target HLA-A*02:11. The test is described as above. Particulars: source organism: Desulfatibacillum alkenivorans AK-01.
The target of test [21] is HLA-A*02:12. The test is described as above. Particulars: source organism: Desulfatibacillum alkenivorans AK-01.
Test [22] has as its target HLA-A*02:16. Described as above. The note with it: source organism: Desulfatibacillum alkenivorans AK-01.
The target in test [23] is HLA-A*02:19. The description is as above. The note with it: source organism: Desulfatibacillum alkenivorans AK-01.
Another test concerns the target HLA-A*24:02. The test can be described thus: IEDB peptide-MHC binding, purified MHC/competitive/fluorescence; ≥ and ≤ were set here for values at or beyond the usual limits of such assays. The note with it: source organism: Zaire ebolavirus.
For test [24], the target named is HLA-A*01:01. The test can be described thus: IEDB peptide-MHC binding, purified MHC/direct/fluorescence; filed as Kd, often an IC50 or EC50 that approximates it; ≥ and ≤ were set here for values at or beyond the usual limits of such assays. The note with it: source organism: Cowpox virus.
Test [25] addresses HLA-A*11:01. Described as above. Particulars: source organism: Cowpox virus.
The target in test [26] is HLA-A*26:01. The test is described as above. The note with it: source organism: Variola virus.
The next test concerns the target HLA-A*31:01. The test is described as above. The note with it: source organism: Cowpox virus.
Another test addresses HLA-B*08:02. The test is described as above. Particulars: source organism: Variola virus.
Test [27] deals with HLA-B*15:01. The test is described as above. The note with it: source organism: Cowpox virus.
The next test addresses HLA-B*15:17. The description is as above. The note with it: source organism: Cowpox virus.
A further test concerns the target HLA-B*27:05. The description is as above. Particulars: source organism: Cowpox virus.
The next test concerns the target HLA-B*40:01. The test is described as above. The note with it: source organism: Cowpox virus.
In test [28] the target is HLA-B*46:01. Described as above. The note with it: source organism: Cowpox virus.
The target of the next test is HLA-B*48:01. The description is as above. Particulars: source organism: Cowpox virus.
Test [29] deals with HLA-B*57:01. Described as above. Particulars: source organism: Cowpox virus.
A further test concerns the target HLA-B*58:01. Described as above. The note with it: source organism: Cowpox virus.
Setting [30] is: source organism: Araucaria virus.
Setting [31] is: source organism: Sudan ebolavirus.
The mark [32] stands for this setting: source organism: Desulfatibacillum alkenivorans AK-01.
The mark [33] stands for this setting: source organism: Zaire ebolavirus.
Setting [34] is: source organism: Vaccinia virus Copenhagen.

By IC50 is commonly meant the concentration that gives 50% inhibition. Low readings indicate greater potency in that assay, high ones weaker potency in that assay. EGHGFRFEV: the IC50 is 28.1 µM in the test with HLA-A*02:01 [1] and 69.3 µM in the test with HLA-B*08:01 [2].
As usually defined, the Kd is a measure of binding affinity in units of concentration. In the case of ELRQLAQSL, the Kd in the test with HLA-A*02:03 [3], in the test with HLA-A*02:11 [4], in the test with HLA-A*02:12 [5], with HLA-A*02:16 [6], in the test with HLA-A*02:19 [7] and in the test with HLA-A*03:01 [8] (source organism: Choclo virus) was ≥ 20 µM throughout. Moreover, the Kd was ≥ 20 µM with HLA-A*02:01 [9] (setting [30]); ≥ 20 µM with HLA-A*26:01 [10]; ≥ 20 µM in the test with HLA-A*69:01 (setting [30]); 0.156 µM in the test with HLA-B*08:01 [11] (setting [30]); ≥ 20 µM with HLA-B*15:01 [12]; ≥ 20 µM with HLA-B*18:01. In addition, the Kd with HLA-B*27:03, in the test with HLA-B*39:01, with HLA-B*46:01 [13], with HLA-B*51:01 and with HLA-B*57:01 [14] was ≥ 20 µM throughout.
For the sequence ISDRATRKY, the IC50 was 1.89 µM with HLA-A*01:01 [15] (setting [31]), 38.6 µM with HLA-A*03:01 [16] (setting [31]), 18.8 µM with HLA-A*11:01 [17] (setting [31]) and 57.6 µM in the test with HLA-B*15:01 [18] (setting [31]).
Turning to KLERRMENL, the dissociation constant Kd in the test with HLA-B*08:01 [11] (source organism: Influenza A virus (A/Osaka/930/88(H1N1))) was ≥ 20 µM.
Consider KLGKAGYVV, for which the Kd came to 0.384 µM in the test with HLA-A*02:01 [9] (setting [32]); 0.00229 µM with HLA-A*02:03 [19]; 0.00192 µM in the test with HLA-A*02:06 (setting [32]); 0.0013 µM with HLA-A*02:11 [20]; 0.0235 µM with HLA-A*02:12 [21]; 0.00177 µM with HLA-A*02:16 [22]. For the same sequence, the Kd with HLA-A*02:19 [23] was 0.117 µM; with HLA-A*69:01 (setting [32]) it was ≥ 20 µM.
LFQRTFSIP: the IC50 with HLA-A*02:01 [1] is ≥ 72.9 µM; with HLA-A*24:02, 1.04 µM; with HLA-B*08:01 [2], ≥ 270 µM.
In the case of MVIFRLMRT, the IC50 is 0.478 µM in the test with HLA-A*02:01 [1], ≥ 96.6 µM with HLA-A*03:01 [16] (setting [33]), ≥ 177 µM in the test with HLA-A*11:01 [17] (setting [33]) and ≥ 77.6 µM in the test with HLA-B*08:01 [2].
Turning to VTLDGQQFY, the IC50 is 3.88 µM in the test with HLA-A*01:01 [15] (setting [33]); ≥ 226 µM with HLA-A*02:01 [1]; ≥ 105 µM in the test with HLA-A*03:01 [16] (setting [33]); 4.92 µM with HLA-A*11:01 [17] (setting [33]); ≥ 192 µM with HLA-A*24:02; 53.6 µM with HLA-B*15:01 [18] (setting [33]).
YKDANISMY: the Kd in the test with HLA-A*01:01 [24], with HLA-A*03:01 [8] (source organism: Cowpox virus), with HLA-A*11:01 [25], with HLA-A*26:01 [26], with HLA-A*31:01 and with HLA-B*08:02 was ≥ 20 µM in each case. Also, the Kd in the test with HLA-B*15:01 [27], with HLA-B*15:17, with HLA-B*27:05, with HLA-B*40:01, with HLA-B*46:01 [28] and with HLA-B*48:01 was ≥ 20 µM in each case. In addition, the equilibrium dissociation constant (Kd) with HLA-B*57:01 [29] was ≥ 20 µM; with HLA-B*58:01, ≥ 20 µM; with HLA-A*02:01 [9] (setting [34]), 0.113 µM; with HLA-A*02:06 (setting [34]) it was 0.107 µM; in the test with HLA-A*69:01 (setting [34]), 1.04 µM.
